This note sets out measurements from paper PMC4749545, “Kindlin-2 cooperates with talin to activate integrins and induces cell spreading by directly binding paxillin” (eLife, 2016).

In this assay the target is T1, recombinant murine kindlin-2 (mouse, UniProt Q8CIB5 1-680).
T1 construct: murine kindlin-2, unmodified after SenP2 cleavage of the His10-SUMO3 tandem tag; Vector pCoofy17; also called recombinant kindlin-2; purified kindlin-2; source: E. coli Rosetta, purified (Ni-NTA, SenP2 cleavage, size-exclusion chromatography); not shown: His10, N-terminal, cleaved; SUMO3, N-terminal, cleaved
T1 sequence (looked up): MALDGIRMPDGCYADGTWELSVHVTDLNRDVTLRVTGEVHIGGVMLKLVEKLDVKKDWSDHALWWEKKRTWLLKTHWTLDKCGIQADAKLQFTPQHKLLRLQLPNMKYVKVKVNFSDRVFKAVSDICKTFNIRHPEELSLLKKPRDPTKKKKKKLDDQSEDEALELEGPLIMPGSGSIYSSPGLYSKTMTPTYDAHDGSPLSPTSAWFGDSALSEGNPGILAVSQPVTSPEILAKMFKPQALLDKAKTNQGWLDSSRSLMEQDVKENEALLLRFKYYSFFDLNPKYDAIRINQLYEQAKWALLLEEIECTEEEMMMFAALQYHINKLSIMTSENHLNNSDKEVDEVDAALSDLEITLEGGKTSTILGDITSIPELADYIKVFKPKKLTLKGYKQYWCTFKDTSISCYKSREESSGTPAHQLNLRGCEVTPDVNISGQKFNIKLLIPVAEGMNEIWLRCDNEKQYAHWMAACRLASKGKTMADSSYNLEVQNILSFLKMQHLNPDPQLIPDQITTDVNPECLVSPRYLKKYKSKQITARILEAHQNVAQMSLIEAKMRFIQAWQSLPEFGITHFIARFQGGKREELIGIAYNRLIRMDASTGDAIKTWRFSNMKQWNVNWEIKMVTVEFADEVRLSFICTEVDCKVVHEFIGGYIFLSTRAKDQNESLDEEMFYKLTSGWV
Nature of the assay: pull-down; His10-tagged paxillin-LIM3 (35 µg) or paxillin-FL (10 µg) on Ni-NTA agarose, washed with 1 mM ZnCl2; 14 µg purified kindlin-2 added for 30 min at 4°C; 20 mM Tris pH 7.5, 200 mM NaCl, 1 mM TCEP, 0.05% Tween20; washes with 25 mM imidazole and 1 mM ZnCl2; SDS-PAGE. The note with it: both partners purified.

B1: His10-SUMO3-paxillin-LIM3 domain (domain or fragment, mouse, UniProt Q8VI36 473-533, looked up)
chain: APKCGGCARAILENYISALNTLWHPECFVCRECFTPFVNGSFFEHDGQPYCEVHYHERRGS
notes: paxillin LIM3 domain, A473-S533; Vector pCoofy17. 'murine' in the sentence of the methods stands before kindlin-2 and may or may not hold for paxillin-LIM3; also called His10-LIM3; His-tagged paxillin-LIM3 domain; source: E. coli Rosetta, purified (Ni-NTA, size-exclusion chromatography); not shown: His10, N-terminal, kept; SUMO3, N-terminal, kept
B1: the binding result is recorded as “binds”.
